T1: mouse CD33 Fc fusion protein (mouse, UniProt Q63994 18-240, limits assumed)
T1 construct: also called mCD33-Fc
T1 sequence: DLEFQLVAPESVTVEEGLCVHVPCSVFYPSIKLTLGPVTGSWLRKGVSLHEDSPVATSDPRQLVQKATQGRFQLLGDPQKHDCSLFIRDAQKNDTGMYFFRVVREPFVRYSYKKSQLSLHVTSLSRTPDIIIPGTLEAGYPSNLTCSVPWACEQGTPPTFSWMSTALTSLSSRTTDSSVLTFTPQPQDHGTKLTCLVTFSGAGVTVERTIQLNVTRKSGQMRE


What was measured:
[1] = biological target: T1, mouse CD33 Fc fusion protein; assay: ForteBio BLI or MSD-SET
human CD33 [2] = biological target: T2, human CD33 (human, UniProt P20138 18-364); assay: cell-based or functional assay
[3] = biological target: T3, human CD33 Fc fusion protein (human, UniProt P20138 18-259); assay: ForteBio BLI or MSD-SET, IgG, avid;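 note: Anti-CD33 IgG affinity by BLI, IgG captured on AHQ sensors with antigen in solution and a one-to-one kinetic fit, or by MSD solution equilibrium titration with quadratic fit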
T3 construct: also called hCD33-Fc; human CD33/Fc chimera (R&D Systems)

human CD33 [4] = biological target: T2, human CD33; assay: flow cytometry, human primary dendritic cells;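 note: binding of anti-CD33 antibodies (10 ug/ml, 1 h on ice) to human primary dendritic cells, detected with a PE-labelled secondary antibody, reported as flow cytometry MFI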
Description: Initial characterization of CD33 antibodies involved determining their ability to bind CD33 expressed on a CHO cell line, on human primary monocytes, human primary macrophages, human primary dendritic cells, and on human primary T cells. Cells were harvested, plated at 10⁶/ml in a 96 well plate, and incubated in 100 ul PBS containing 2% FBS, 2 mM EDTA and 10 ug/ml Mab and Fc blocking reagent for 1 hour in ice. Cells were washed twice and incubated in 100 ul PBS containing 2% FBS, 2 mM EDTA and 5 ug/ml PE-conjugated secondary antibody for 30 minutes on ice. Cells were washed twice in cold PBS and analyze by flow cytometry on a BD FACS Canto. Data analysis and calculation of MFI values was performed with FlowJo (TreeStar) software version 10.0.7.

[5] = biological target: T3, human CD33 Fc fusion protein; assay: RBC adhesion to plate-bound CD33-Fc; antibody 0.5 ug/ml;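 note: Plate-coated CD33-Fc preincubated 1 h with antibody, then red blood cells added for 1 h at room temperature, adherent cells lysed and quantified via peroxidase activity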
Description: Briefly, 5 ug/ml CD33-Fc was coated overnight at RT in 96 well Immunolon plates, then washed with PBS, blocked for one hour with binding buffer (PBS containing %0.25 BSA 1 mM CaCl₂). CD33 antibodies (0.5 ug/ml or 1.0 ug/ml) or Fabs (25 ug/ml) were bound for one hour at RT with gentle rocking. After removal of unbound antibody, red blood cells were added to each well at a concentration of 3.0×10⁶ cells per ml and incubated at RT for one hour. Unbound RBCs were then carefully washed off 3× with PBS, and water was added to each well for hypotonic lysis of bound RBCs. The plate was transferred to −80° C. for 10 minutes, followed by 37° C. for 15 minutes. Bound RBCs were detected by peroxidase activity, followed by 2N sulfuric acid to stop the reaction.

human CD33 [6] = biological target: T2, human CD33; assay: flow cytometry, human primary macrophages;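 note: binding of CD33 antibodies at 10 µg/ml to human primary macrophages, 1 h on ice, detected with PE-labelled secondary antibody by flow cytometry, reported as MFI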
[7] = biological target: T3, human CD33 Fc fusion protein; assay: RBC adhesion to plate-bound CD33-Fc; antibody 1.0 ug/ml;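 note: red blood cells adhering to plate-coated CD33-Fc after 1 h antibody pretreatment, then 1 h at room temperature, bound cells read as peroxidase activity after lysis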
human CD33 [8] = biological target: T2, human CD33; assay: flow cytometry, human primary T cells;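 note: binding of anti-CD33 antibodies at 10 ug/ml to human primary T cells, 1 h on ice, detected with PE-labelled secondary antibody, read as flow cytometry MFI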
[9] = biological target: T4, human monomeric His tagged CD33 protein (human, UniProt P20138 18-259); assay: ForteBio BLI or MSD-SET, IgG, monomeric antigen;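 note: BLI: antibodies captured on AHQ sensors, 100 nM antigen association 5 min, dissociation 5 min, 1:1 fit. MSD-SET: antigen fixed at 50 pM, antibody titrated, quadratic fit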
T4 construct: also called hCD33-His
Description: The binding affinity of each anti-CD33 antibody was determined by measuring their KD by ForteBio or MSD-SET. […] Briefly, ForteBio affinity measurements were performed by loading IgGs on-line onto AHQ sensors. Sensors were equilibrated off-line in assay buffer for 30 min and then monitored on-line for 60 seconds for baseline establishment. Sensors with loaded IgGs were exposed to 100 nM antigen for 5 minutes, then transferred to assay buffer for 5 min for off-rate measurement. Kinetics were analyzed using the 1:1 binding model.
Solution equilibrium titrations (SET) were performed in PBS+0.1% IgG-Free BSA (PBSF) with antigen held constant at 50 pM and incubated with 3-to 5-fold serial dilutions of antibody starting at 10 nM. Antibodies (20 nM in PBS) were coated onto standard bind MSD-ECL plates overnight at 4° C. or at room temperature for 30 min. Plates were then blocked for 30 min with shaking at 700 rpm, followed by three washes with wash buffer (PBSF+0.05% Tween 20). SET samples were applied and incubated on the plates for 150s with shaking at 700 rpm followed by one wash. Antigen captured on a plate was detected with 250 ng/mL sulfotag-labeled streptavidin in PBSF by incubation on the plate for 3 min. The plates were washed three times with wash buffer and then read on the MSD Sector Imager 2400 instrument using 1× Read Buffer T with surfactant. The percent free antigen was plotted as a function of titrated antibody in Prism and fit to a quadratic equation to extract the KD. To improve throughput, liquid handling robots were used throughout MSD-SET experiments, including SET sample preparation.

human CD33 [10] = biological target: T2, human CD33; assay: flow cytometry, human primary monocytes; set-up: reference not given here;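 note: binding of anti-CD33 antibodies at 10 ug/ml to human primary monocytes, 1 h on ice, detected by PE-labelled secondary antibody, flow cytometry readout as mean fluorescence intensity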

T2 sequence (P20138 18-364): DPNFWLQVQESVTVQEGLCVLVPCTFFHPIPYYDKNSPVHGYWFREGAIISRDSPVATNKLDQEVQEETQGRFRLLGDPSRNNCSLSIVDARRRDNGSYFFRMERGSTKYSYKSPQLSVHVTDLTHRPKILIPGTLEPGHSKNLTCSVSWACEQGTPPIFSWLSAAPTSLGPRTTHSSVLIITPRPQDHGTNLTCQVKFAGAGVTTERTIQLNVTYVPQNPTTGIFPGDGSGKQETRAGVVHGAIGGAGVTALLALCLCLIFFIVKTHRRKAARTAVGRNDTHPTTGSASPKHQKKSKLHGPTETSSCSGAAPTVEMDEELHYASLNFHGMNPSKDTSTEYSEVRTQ
T3 sequence (P20138 18-259 limits assumed): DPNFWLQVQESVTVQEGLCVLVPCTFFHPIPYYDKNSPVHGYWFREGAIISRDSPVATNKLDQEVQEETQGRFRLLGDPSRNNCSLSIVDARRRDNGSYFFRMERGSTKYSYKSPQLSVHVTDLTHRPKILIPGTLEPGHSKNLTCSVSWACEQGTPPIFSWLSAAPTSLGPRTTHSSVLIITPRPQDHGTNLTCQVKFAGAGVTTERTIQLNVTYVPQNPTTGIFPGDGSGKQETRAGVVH
T4 sequence (P20138 18-259 limits assumed): as above

Binder	binding result [1]	Percent CD33 Surface Expression, DC % CD33 (human CD33 [2])	Percent CD33 Surface Expression, Macrophage % CD33 (human CD33 [2])	Percent CD33 Surface Expression, Monocyte % CD33 (human CD33 [2])	Kd [3]	DC MFI (human CD33 [4])	Percent RBC Binding to CD33 [5]	Macrophage MFI (human CD33 [6])	Percent RBC Binding to CD33 [7]	T cell MFI (human CD33 [8])	Kd [9]	Monocyte MFI (human CD33 [10])
C-41 (antibody, V domains shown, human IgG1) VH: QLQLQESGPGLVKPSETLSLTCTVSGGSISSSSYYWGWIRQPPGKGLEWIGSISYSGSTYYNPSLKSRVTISVDTSKNQFSLKLSSVTAADTAVYYCAREGGKGMDVWGQGTLVTVSS VL: EIVLTQSPGTLSLSPGERATLSCRASQSVSSSFLAWYQQKPGQAPRLLIYGASSRATGIPDRFSGSGSGTDFTLTISRLEPEDFAVYYCQQFGDLPTFGGGTKVEIK	no binding (tested: 100 nM)	18.6%	39.5%	40.8%	1.06 nM	1810	10.7%	945	8.19%	208	4.37 nM	180
C-62 (antibody, V domains shown, human IgG1) VH: not shown VL: EIVMTQSPATLSVSPGERATLSCRASQSVSSNLAWYQQKPGQAPRLLIYGASTRATGIPARFSGSGSGTEFTLTISSLQSEDFAVYYCQQFSNWPLTFGGGTKVEIK	no binding (tested: 100 nM)	78.4%	–	87.4%	4.07 nM	1660	95.7%	520	84%	96.4	23.6 nM	197
C-45 (antibody, V domains shown, human IgG1) VH: not shown VL: DIQMTQSPSSVSASVGDRVTITCRASQGISSWLAWYQQKPGKAPKLLIYAASSLQSGVPSRFSGSGSGTDFTLTISSLQPEDFATYYCQQAYSFPTFGGGTKVEIK	no binding (tested: 100 nM)	65.7%	–	78.2%	2.25 nM	1150	114%	1010	110%	55.4	12.8 nM	182
C-37 (antibody, V domains shown, human IgG1) VH: QLQLQESGPGLVKPSETLSLTCTVSGGSISSSSYYWGWIRQPPGKGLEWIGSISYSGSTYYNPSLKSRVTISVDTSKNQFSLKLSSVTAADTAVYYCAREHRAADAGSNVWGQGTMVTVSS VL: not shown	no binding (tested: 100 nM)	19%	55.3%	32.2%	0.409 nM	1840	11%	952	5.6%	213	2.72 nM	203
C-44 (antibody, V domains shown, human IgG1) VH: QLQLQESGPGLVKPSETLSLTCTVSGGSISSSSYAWGWIRQPPGKGLEWIGSIYYSGSTYYNPSLKSRVTISVDTSKNQFSLKLSSVTAADTAVYYCAREGYVAAYGMDVWGQGTTVTVSS VL: DIQMTQSPSSLSASVGDRVTITCRASQSISSYLNWYQQKPGKAPKLLIYAASSLQSGVPSRFSGSGSGTDFTLTISSLQPEDFATYYCQQAYYPPWTFGGGTKVEIK	no binding (tested: 100 nM)	14.7%	57.3%	24.8%	0.612 nM	1520	13.3%	892	10.5%	310	2.62 nM	161

Further binders by falling Kd [3], results first:

binding result [1]	Percent CD33 Surface Expression, DC % CD33 (human CD33 [2])	Percent CD33 Surface Expression, Macrophage % CD33 (human CD33 [2])	Percent CD33 Surface Expression, Monocyte % CD33 (human CD33 [2])	Kd [3]	DC MFI (human CD33 [4])	Percent RBC Binding to CD33 [5]	Macrophage MFI (human CD33 [6])	Percent RBC Binding to CD33 [7]	T cell MFI (human CD33 [8])	Kd [9]	Monocyte MFI (human CD33 [10])	Binder
no binding (tested: 100 nM)	43.1%	73.3%	54.7%	3.17 nM	1460	19.8%	866	13.8%	357	15.6 nM	177	C-5 (antibody, V domains shown, human IgG1) VH: not shown VL: EIVLTQSPGTLSLSPGERATLSCRASQSVSSSFLAWYQQKPGQAPRLLIYGASSRATGIPDRFSGSGSGTDFTLTISRLEPEDFAVYYCQQVSSFPPTFGGGTKVEIK
no binding (tested: 100 nM)	22.8%	46.5%	27.2%	2.06 nM	2000	12.5%	802	5.11%	1210	9.97 nM	181	C-39 (antibody, V domains shown, human IgG1) VH: QLQLQESGPGLVKPSETLSLTCTVSGGSISSSSYYWGWIRQPPGKGLEWIGSIYYSGSTYYNPSLKSRVTISVDTSKNQFSLKLSSVTAADTAVYYCAREGVRGMDVWGQGTTVTVSS VL: EIVLTQSPGTLSLSPGERATLSCRASQSVSSSYLAWYQQKPGQAPRLLIYGASSRATGIPDRFSGSGSGTDFTLTISRLEPEDFAVYYCQQFAFLPPTFGGGTKVEIK
no binding (tested: 100 nM)	24.5%	42.5%	34.9%	2.06 nM	1500	13.8%	908	8.99%	192	9.04 nM	151	C-43 (antibody, V domains shown, human IgG1) VH: QVQLVQSGAEVKKPGASVKVSCKASGYTFTSYYMHWVRQAPGQGLEWMGVINPSGGSTSYAQKFQGRVTMTRDTSTSTVYMELSSLRSEDTAVYYCAREEAVAADLGVDVWGQGTTVTVSS VL: not shown
no binding (tested: 100 nM)	17.8%	35.2%	24.2%	1.86 nM	1470	19.7%	663	12.1%	210	10.6 nM	76	C-40 (antibody, V domains shown, human IgG1) VH: EVQLVESGGGLVQPGGSLRLSCAASGFTFSSYWMSWVRQAPGKGLEWVANIKQDGSEKYYVDSVKGRFTISRDNAKNSLYLQMNSLRAEDTAVYYCAREGGYVGHGMDVWGQGTTVTVSS VL: not shown
no binding (tested: 100 nM)	17.9%	49.1%	27.6%	1.28 nM	1740	15.6%	904	10.3%	267	5.25 nM	166	C-38 (antibody, V domains shown, human IgG1) VH: QLQLQESGPGLVKPSETLSLTCTVSGGSISSSSYYWGWIRQPPGKGLEWIGSIYYSGSTYYNPSLKSRVTISVDTSKNQFSLKLSSVTAADTAVYYCAREATAAADHPGMDVWGQGTTVTVSS VL: DIQMTQSPSSLSASVGDRVTITCQASQDITNYLNWYQQKPGKAPKLLIYDASNLETGVPSRFSGSRSGTDFTFTISSLQPEDIATYYCQQYHDFPTFGGGTKVEIK
no binding (tested: 100 nM)	17%	51%	23.8%	1.19 nM	1420	22.9%	831	10.7%	209	5.33 nM	151	C-67 (antibody, V domains shown, human IgG1) VH: QLQLQESGPGLVKPSETLSLTCTVSGGSISSSSYYWGWIRQPPGKGLEWIGSIYYSGSTYYNPSLKSRVTISVDTSKNQFSLKLSSVTAADTAVYYCAREVSGTRHGMDVWGQGTTVTVSS VL: not shown
no binding (tested: 100 nM)	19.7%	40%	41.6%	1.1 nM	1560	15.7%	846	10.5%	230	4.98 nM	136	C-56 (antibody, V domains shown, human IgG1) VH: EVQLVESGGGLVQPGGSLRLSCAASGFTFSSYWMSWVRQAPGKGLEWVANIKQDGSEKYYVDSVKGRFTISRDNAKNSLYLQMNSLRAEDTAVYYCARDYGSVAGTPFDYWGQGTLVTVSS VL: DIQMTQSPSSLSASVGDRVTITCRASQSISSYLNWYQQKPGKAPKLLIYAASSLQSGVPSRFSGSGSGTDFTLTISSLQPEDFATYYCQQVLHTPLTFGGGTKVEIK

Reference: patent publication US20220281976A1 (Alector, published 2022)
